The record followed here is US20150344570A1 (published 2015).

T1: FcγRIIa H (human, UniProt P12318 34-217)
T1 construct: extracellular domain; also called FcγRIIa type H; 2aH; not shown: His tag at the C terminus
T1 sequence (looked up): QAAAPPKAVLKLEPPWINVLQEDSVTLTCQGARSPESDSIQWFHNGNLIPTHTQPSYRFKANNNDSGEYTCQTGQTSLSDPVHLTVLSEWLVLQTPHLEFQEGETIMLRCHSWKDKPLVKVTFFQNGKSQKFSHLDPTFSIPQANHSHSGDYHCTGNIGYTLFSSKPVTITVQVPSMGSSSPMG

T2: FcγRIIb (human, UniProt P31994 43-217)
T2 construct: extracellular domain; also called 2b; not shown: His tag at the C terminus
T2 sequence (looked up): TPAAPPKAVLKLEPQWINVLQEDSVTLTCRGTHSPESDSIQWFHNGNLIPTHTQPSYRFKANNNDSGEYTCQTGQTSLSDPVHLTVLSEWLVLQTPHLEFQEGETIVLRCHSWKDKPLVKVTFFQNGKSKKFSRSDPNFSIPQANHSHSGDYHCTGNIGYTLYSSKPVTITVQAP

B1: GpH7-A5/GpH7-B3 variant E333_09D/GpL16-k0 (antibody, human IgG1, kappa)
heavy 1: not shown
heavy 2: not shown
light: DIVMTQSPLSLPVTPGEPASISCQASESLVHSNRNTYLHWYLQKPGQSPQLLIYKVSNRFSGVPDRFSGSGSGTDFTLKISRVEAEDVGVYYCSQNTHVPPTFGQGTKVEIERTVAAPSVFIFPPSDEQLKSGTASVVCLLNNFYPREAKVQWKVDNALQSGNSQESVTEQDSKDSTYSLSSTLTLSKADYEKHKVYACEVTHQGLSSPVTKSFNRGEC
notes: Heterodimerized IgG1; mutation in the GpH7-B3 chain only; also called He Ab
B2: GpH7-A5/GpH7-B3 variant S324_10E/GpL16-k0 (antibody, human IgG1, kappa)
heavy 1: not shown
heavy 2: not shown
light: B1 light
notes: as for B1
B3: GpH7-A5/GpH7-B3 variant Q295_05P/GpL16-k0 (antibody, human IgG1, kappa)
heavy 1: not shown
heavy 2: not shown
light: B1 light
notes: as for B1
B4: GpH7-A5/GpH7-B3 variant S324_15Y/GpL16-k0 (antibody, human IgG1, kappa)
heavy 1: not shown
heavy 2: not shown
light: B1 light
notes: as for B1
B5: GpH7-A5/GpH7-B3 variant S324_20W/GpL16-k0 (antibody, human IgG1, kappa)
heavy 1: not shown
heavy 2: not shown
light: B1 light
notes: as for B1
B6: GpH7-A5/GpH7-B3 variant I336_10E/GpL16-k0 (antibody, human IgG1, kappa)
heavy 1: not shown
heavy 2: not shown
light: B1 light
notes: as for B1
B7: GpH7-A5/GpH7-B3 variant I332_19Q/GpL16-k0 (antibody, human IgG1, kappa)
heavy 1: not shown
heavy 2: not shown
light: B1 light
notes: as for B1
B8: GpH7-A5/GpH7-B3 variant I336_03V/GpL16-k0 (antibody, human IgG1, kappa)
heavy 1: not shown
heavy 2: not shown
light: B1 light
notes: as for B1
B9: GpH7-A5/GpH7-B3 variant Y296_04F/GpL16-k0 (antibody, human IgG1, kappa)
heavy 1: not shown
heavy 2: not shown
light: B1 light
notes: as for B1
B10: GpH7-A5/GpH7-B3 variant K326_12R/GpL16-k0 (antibody, human IgG1, kappa)
heavy 1: not shown
heavy 2: not shown
light: B1 light
notes: as for B1
B11: GpH7-A5/GpH7-B3 variant E333_14T/GpL16-k0 (antibody, human IgG1, kappa)
heavy 1: not shown
heavy 2: not shown
light: B1 light
notes: as for B1
B12: GpH7-A5/GpH7-B3 variant T335_06M/GpL16-k0 (antibody, human IgG1, kappa)
heavy 1: not shown
heavy 2: not shown
light: B1 light
notes: as for B1
B13: GpH7-A5/GpH7-B3 variant Y300_06M/GpL16-k0 (antibody, human IgG1, kappa)
heavy 1: not shown
heavy 2: not shown
light: B1 light
notes: as for B1
B14: GpH7-A5/GpH7-B3 variant S324_09D/GpL16-k0 (antibody, human IgG1, kappa)
heavy 1: not shown
heavy 2: not shown
light: B1 light
notes: as for B1
B15: GpH7-A5/GpH7-B3 variant S324_16H/GpL16-k0 (antibody, human IgG1, kappa)
heavy 1: not shown
heavy 2: not shown
light: B1 light
notes: as for B1
B16: GpH7-A5/GpH7-B3 variant I332_18N/GpL16-k0 (antibody, human IgG1, kappa)
heavy 1: not shown
heavy 2: not shown
light: B1 light
notes: as for B1
B17: GpH7-A5/GpH7-B3 variant S324_02A/GpL16-k0 (antibody, human IgG1, kappa)
heavy 1: not shown
heavy 2: not shown
light: B1 light
notes: as for B1
B18: GpH7-A5/GpH7-B3 variant Q295_07I/GpL16-k0 (antibody, human IgG1, kappa)
heavy 1: not shown
heavy 2: not shown
light: B1 light
notes: as for B1
B19: GpH7-A5/GpH7-B3 variant T335_01G/GpL16-k0 (antibody, human IgG1, kappa)
heavy 1: not shown
heavy 2: not shown
light: B1 light
notes: as for B1
B20: GpH7-A5/GpH7-B3 variant I332_03V/GpL16-k0 (antibody, human IgG1, kappa)
heavy 1: not shown
heavy 2: not shown
light: B1 light
notes: as for B1
B21: GpH7-A5/GpH7-B3 variant Y296_16H/GpL16-k0 (antibody, human IgG1, kappa)
heavy 1: not shown
heavy 2: not shown
light: B1 light
notes: as for B1
B22: GpH7-A5/GpH7-B3 variant T335_05P/GpL16-k0 (antibody, human IgG1, kappa)
heavy 1: not shown
heavy 2: not shown
light: B1 light
notes: as for B1
B23: GpH7-A5/GpH7-B3 variant E333_13S/GpL16-k0 (antibody, human IgG1, kappa)
heavy 1: not shown
heavy 2: not shown
light: B1 light
notes: as for B1
B24: GpH7-A5/GpH7-B3 variant Y300_07I/GpL16-k0 (antibody, human IgG1, kappa)
heavy 1: not shown
heavy 2: not shown
light: B1 light
notes: as for B1
B25: GpH7-A5/GpH7-B3 variant G236_20W/GpL16-k0 (antibody, human IgG1, kappa)
heavy 1: not shown
heavy 2: not shown
light: B1 light
notes: as for B1
B26: GpH7-A5/GpH7-B3 variant Y296_18N/GpL16-k0 (antibody, human IgG1, kappa)
heavy 1: not shown
heavy 2: not shown
light: B1 light
notes: as for B1
B27: GpH7-A5/GpH7-B3 variant I332_16H/GpL16-k0 (antibody, human IgG1, kappa)
heavy 1: not shown
heavy 2: not shown
light: B1 light
notes: as for B1
B28: GpH7-A5/GpH7-B3 variant S324_04F/GpL16-k0 (antibody, human IgG1, kappa)
heavy 1: not shown
heavy 2: not shown
light: B1 light
notes: as for B1
B29: GpH7-A5/GpH7-B3 variant H268_04F/GpL16-k0 (antibody, human IgG1, kappa)
heavy 1: not shown
heavy 2: not shown
light: B1 light
notes: as for B1
B30: GpH7-A5/GpH7-B3 variant T335_02A/GpL16-k0 (antibody, human IgG1, kappa)
heavy 1: not shown
heavy 2: not shown
light: B1 light
notes: as for B1
B31: GpH7-A5/GpH7-B3 variant I332_13S/GpL16-k0 (antibody, human IgG1, kappa)
heavy 1: not shown
heavy 2: not shown
light: B1 light
notes: as for B1
B32: GpH7-A5/GpH7-B3 variant Y296_09D/GpL16-k0 (antibody, human IgG1, kappa)
heavy 1: not shown
heavy 2: not shown
light: B1 light
notes: as for B1
B33: GpH7-A5/GpH7-B3 variant I336_18N/GpL16-k0 (antibody, human IgG1, kappa)
heavy 1: not shown
heavy 2: not shown
light: B1 light
notes: as for B1

For the first assay, the target named is T1, FcγRIIa H. Kind of assay: SPR (Biacore), antibody captured, FcγR as analyte; binding relative to GpH7-A5/GpH7-B3/GpL16-k0 = 100. Here is the method:
(§1) The heterodimerized antibodies He Abs in which one of the H chains was introduced with an alteration were assayed for their binding activities to each activating FcγR and inhibitory FcγR according to the method described in Example 4. […] The activating FcγRs in FIGS. 26, 27, 28, and 29 are FcγRIa, FcγRIIa (R), FcγRIIa (H), and FcγRIIIa, respectively.
(§2) Analysis of interaction between objective antibody and the FcγR was carried out using Biacore T100 (GE Healthcare). HBS-EP+ (GE Healthcare) was used as the running buffer, and the measurement temperature was set to 25° C. Chips produced by immobilizing the antigen peptide by the amine coupling method to a Series S Sencor Chip CM5 (GE Healthcare), or alternatively, chips produced by allowing preliminarily biotinylated antigen peptides to interact with and immobilize onto a Series S Sensor Chip SA (certified) (GE Healthcare) were used. Antibodies of interest were captured onto an antigen peptide-immobilized chip, and allowed to interact to each FcγR diluted with running buffer. To regenerate and repeatedly use the chip, the antibodies captured on the chip were washed off by reacting 10 mM glycine-HCl, pH 1.5.
Turning to B1, the He/Con_2aH was 103 % of control.

With B2, the He/Con_2aH was 103 % of control.

For B3, the He/Con_2aH was 103 % of control.

As to B4, the He/Con_2aH was 102 % of control.

For the molecule B5, the He/Con_2aH was 103 % of control.

As to B6, the He/Con_2aH is 102 % of control.

Turning to B7, the He/Con_2aH was 108 % of control.

In the case of B8, the He/Con_2aH is 102 % of control.

Consider B9, for which the He/Con_2aH is 100 % of control.

For the molecule B10, the He/Con_2aH was 101 % of control.

For B11, the He/Con_2aH was 100 % of control.

Take B12: the He/Con_2aH is 103 % of control.

For B13, the He/Con_2aH is 105 % of control.

Regarding B14, the He/Con_2aH was 106 % of control.

Regarding B15, the He/Con_2aH was 102 % of control.

Take B16: the He/Con_2aH is 110 % of control.

On to B17, for which the He/Con_2aH is 102 % of control.

In the case of B18, the He/Con_2aH is 102 % of control.

Take B19: the He/Con_2aH was 103 % of control.

Regarding B20, the He/Con_2aH is 105 % of control.

For the molecule B21, the He/Con_2aH was 104 % of control.

B22: the He/Con_2aH is 108 % of control.

Take B23: the He/Con_2aH was 101 % of control.

As for B24, the He/Con_2aH was 108 % of control.

As for B25, the He/Con_2aH was 147 % of control.

As for B26, the He/Con_2aH was 104 % of control.

As for B27, the He/Con_2aH was 109 % of control.

As for B28, the He/Con_2aH is 101 % of control.

B29: the He/Con_2aH is 111 % of control.

For B30, the He/Con_2aH is 101 % of control.

Consider B31, for which the He/Con_2aH was 110 % of control.

Consider B32, for which the He/Con_2aH was 104 % of control.

In the case of B33, the He/Con_2aH was 103 % of control.

In a further assay the target is T2, FcγRIIb. Described as above. How it is done:
as §1, §2
Regarding B1, the He/Con_2b is 94.3 % of control.

For B2, the He/Con_2b is 77.4 % of control.

Take B3: the He/Con_2b was 67.5 % of control.

On to B4, for which the He/Con_2b was 88.2 % of control.

As to B5, the He/Con_2b was 87.5 % of control.

Turning to B6, the He/Con_2b is 89.8 % of control.

Regarding B7, the He/Con_2b was 94.3 % of control.

As to B8, the He/Con_2b is 90.3 % of control.

In the case of B9, the He/Con_2b was 99.2 % of control.

B10: the He/Con_2b was 89.2 % of control.

On to B11, for which the He/Con_2b was 86.1 % of control.

In the case of B12, the He/Con_2b is 99.4 % of control.

B13: the He/Con_2b is 84.3 % of control.

As to B14, the He/Con_2b is 85.8 % of control.

Consider B15, for which the He/Con_2b was 83.5 % of control.

With B16, the He/Con_2b was 89.9 % of control.

As to B17, the He/Con_2b is 78.3 % of control.

For B18, the He/Con_2b is 84.3 % of control.

With B19, the He/Con_2b was 96.7 % of control.

As to B20, the He/Con_2b is 80.7 % of control.

B21: the He/Con_2b was 92.2 % of control.

On to B22, for which the He/Con_2b is 99.9 % of control.

Turning to B23, the He/Con_2b was 81.8 % of control.

Regarding B24, the He/Con_2b was 74.5 % of control.

Regarding B25, the He/Con_2b is 58.2 % of control.

For the molecule B26, the He/Con_2b is 91.5 % of control.

For the molecule B27, the He/Con_2b was 93 % of control.

Turning to B28, the He/Con_2b was 89.1 % of control.

Regarding B29, the He/Con_2b is 89.6 % of control.

In the case of B30, the He/Con_2b is 94 % of control.

For B31, the He/Con_2b is 98.4 % of control.

Take B32: the He/Con_2b is 98.9 % of control.

Turning to B33, the He/Con_2b is 97.6 % of control.
